1 molecule from publication PMC3733885, “Structures of an Apo and a Binary Complex of an Evolved Archeal B Family DNA Polymerase Capable of Synthesising Highly Cy-Dye Labelled DNA” can be followed below.

The target in this series is T1, Pfu-E10 DNA polymerase (evolved Pfu polB variant) (Pyrococcus furiosus, UniProt P61875 1-775, R407I).
T1 sequence: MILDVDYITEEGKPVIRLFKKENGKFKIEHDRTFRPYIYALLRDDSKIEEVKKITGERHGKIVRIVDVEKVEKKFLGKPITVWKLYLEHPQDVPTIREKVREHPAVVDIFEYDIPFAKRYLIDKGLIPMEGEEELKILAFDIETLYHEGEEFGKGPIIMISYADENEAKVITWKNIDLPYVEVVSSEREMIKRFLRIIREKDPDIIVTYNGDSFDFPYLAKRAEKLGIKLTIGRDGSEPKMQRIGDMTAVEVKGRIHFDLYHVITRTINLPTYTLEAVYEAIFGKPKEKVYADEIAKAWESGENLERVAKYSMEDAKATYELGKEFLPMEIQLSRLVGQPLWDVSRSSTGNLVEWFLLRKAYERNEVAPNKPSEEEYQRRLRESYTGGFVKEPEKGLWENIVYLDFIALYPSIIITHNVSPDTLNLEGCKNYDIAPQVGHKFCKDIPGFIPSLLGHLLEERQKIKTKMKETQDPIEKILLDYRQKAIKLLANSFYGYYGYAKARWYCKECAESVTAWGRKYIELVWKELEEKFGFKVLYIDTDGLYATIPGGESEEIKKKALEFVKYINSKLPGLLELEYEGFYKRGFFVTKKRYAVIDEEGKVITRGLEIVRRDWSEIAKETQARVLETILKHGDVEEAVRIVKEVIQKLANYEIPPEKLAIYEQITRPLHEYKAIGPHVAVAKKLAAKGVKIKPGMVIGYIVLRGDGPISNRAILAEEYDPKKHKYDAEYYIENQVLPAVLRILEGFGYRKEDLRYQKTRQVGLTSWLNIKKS
In words: X-ray crystallography (2.9 A); binary complex; 10 mM dCTP in crystallisation medium but no dNTP or metal ion seen at active site; Complex: 20 mM Tris, 50 mM NaCl, 5 mM MgCl2, 5% glycerol, 1 mM dCTP, 1:5 protein:DNA, 4 C overnight; crystals: 0.1 M Na cacodylate pH 6.5, 0.1 M Na citrate, 30% isopropanol, 10 mM dCTP. The following applies: protein: recombinant; 5' overhang 3 nt (template).

B1: primer:template duplex (crystal) (dsDNA)
DNA 1: ACGGGTAAGCA
DNA 2: TGCTTACC
modifications: 3'-terminal C of primer is 2',3'-dideoxycytidine (DOC)
For B1, the binding result is listed as “binds”.
